Experimental data from IntAct's records for PubMed 15916946.

B1: Serine/threonine-protein kinase tousled-like 1 (Caenorhabditis elegans), P34314 (parent)
chain: MSMLSMDGIVAGGGSSSGGGERSFVLEQKMFNTGPQNKALPTVQSSGSSSNHAPIVGESPLGTVSSTMATGDTGRVGNVTYMSSGMLGATQFMPQNSSHPSTSVMMQQVPPQNGGATRSSPTEMQQCMQAMSEDSIEMRDYNSGVHHMHPHQMQMQQQQQHHQQQYNMSYHNHQQQMQQMHYHQQQQQYQQQQAQHHQMYAPQIQQQQQQPQQQSQQQSAQQPQQSSAALQHVNESSNLSSAGSISDREPEQHGGTPQRPTAPQSSTATDKKTRKRRKAGPTEDQATPKQERKITEFMKVGGEVASGNSVARCLLTEYHQNQGSPKRQPAVQQNGSNSYDSQQQQPQMNQHEMQNSYWGVATPSLGVNNRGTPTPTQQQHYSSDSNSNSNQSPPGQGNQSGRMVRTIDEETQTDSSLSQANPQNADEVAKMNRIIEDHRRQIEELNSKNSLERRKNEASKETIKRLLIDKNQIERKALRDKTAADSPRIGCFKTTRTGDSFRDQWVDGWAFAEMDKKTEQINAERNEIASASALLKKRKPLGIGKEPKRPQAVNSQNDSNGMQPSTSSNTNGDDAIFRRPEEPKEIQYQEYIELDEIYKLRREHLRKEETDLSMEKERLEKEKQHHVRELKRASNESASQFNDHRLLHKRYLMLNLLGKGGFSEVWKAFDIEENRYVACKIHHVNKDWKEEKKANYVKHAMREKDIHKSLDHCRIVKQYDLLTIDNHSFCTVLEYVPGNDLDFYLKQNRSISEKEARSIIMQVVSALVYLNEKSTPIIHYDLKPANILLESGNTSGAIKITDFGLSKIMEGESDDHDLGIELTSQFAGTYWYLPPETFIVPPPKITCKVDVWSIGVIFYQCIYGKKPFGNDLTQQKILEYNTIINAREVSFPSKPQVSSAAQDFIRRCLQYRKEDRADVFELAKHELFRPRGAIRASVAGSLLLVIITLCQHSNRSEDRLCVSNV
partner: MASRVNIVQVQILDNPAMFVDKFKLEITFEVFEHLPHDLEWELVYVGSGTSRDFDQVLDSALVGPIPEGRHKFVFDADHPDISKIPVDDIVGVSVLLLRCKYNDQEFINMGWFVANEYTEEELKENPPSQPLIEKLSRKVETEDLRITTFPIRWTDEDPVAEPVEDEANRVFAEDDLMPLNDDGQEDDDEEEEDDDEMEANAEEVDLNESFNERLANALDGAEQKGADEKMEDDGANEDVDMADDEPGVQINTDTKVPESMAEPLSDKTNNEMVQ

Variants of: B1
Settings: with asf1_caeel unc-85, Q19326

effect of a mutation on the interaction | Variant
increasing interaction | S634A
increasing interaction | S634E
